Measurements reported in patent US20250207166.

Key:
[1] = biological target: T1, chalcone synthase-like B (ChSB)
T1 chain: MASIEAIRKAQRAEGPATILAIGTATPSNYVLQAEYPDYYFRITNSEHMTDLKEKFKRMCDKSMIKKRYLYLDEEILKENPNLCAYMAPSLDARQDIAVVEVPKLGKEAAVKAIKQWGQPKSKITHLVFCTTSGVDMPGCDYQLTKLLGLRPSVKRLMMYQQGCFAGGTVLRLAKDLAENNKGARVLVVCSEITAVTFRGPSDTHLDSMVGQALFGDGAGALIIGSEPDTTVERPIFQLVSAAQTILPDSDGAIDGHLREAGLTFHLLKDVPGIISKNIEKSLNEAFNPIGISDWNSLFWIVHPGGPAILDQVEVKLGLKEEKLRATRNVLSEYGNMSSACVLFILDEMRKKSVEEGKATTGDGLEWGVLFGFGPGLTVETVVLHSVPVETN

[2] = biological target: T2, chalcone synthase-like F (ChSF)
T2 chain: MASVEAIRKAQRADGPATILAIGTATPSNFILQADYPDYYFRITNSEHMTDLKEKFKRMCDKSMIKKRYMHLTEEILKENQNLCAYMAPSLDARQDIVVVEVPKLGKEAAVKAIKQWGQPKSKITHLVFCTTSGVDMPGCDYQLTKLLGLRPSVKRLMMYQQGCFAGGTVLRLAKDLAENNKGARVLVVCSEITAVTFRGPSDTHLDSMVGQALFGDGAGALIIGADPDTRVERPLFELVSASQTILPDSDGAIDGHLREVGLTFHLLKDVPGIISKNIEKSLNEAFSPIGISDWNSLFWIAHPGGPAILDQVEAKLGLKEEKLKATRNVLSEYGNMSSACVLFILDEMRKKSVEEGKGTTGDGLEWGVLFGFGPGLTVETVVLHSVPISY

[3] = biological target: T3, chalcone synthase-like D (ChSD)
T3 chain: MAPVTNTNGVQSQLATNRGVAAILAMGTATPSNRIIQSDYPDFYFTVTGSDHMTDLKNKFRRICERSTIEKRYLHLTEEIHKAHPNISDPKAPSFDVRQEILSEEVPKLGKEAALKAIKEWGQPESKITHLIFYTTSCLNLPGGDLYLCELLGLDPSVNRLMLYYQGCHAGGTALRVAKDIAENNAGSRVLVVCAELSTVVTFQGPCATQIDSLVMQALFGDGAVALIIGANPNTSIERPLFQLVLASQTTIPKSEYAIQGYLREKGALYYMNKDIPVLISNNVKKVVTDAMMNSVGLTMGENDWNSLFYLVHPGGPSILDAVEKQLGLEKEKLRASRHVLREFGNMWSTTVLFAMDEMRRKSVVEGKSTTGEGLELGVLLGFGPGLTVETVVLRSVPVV

[4] = biological target: T4, chalcone synthase-like C (ChSC)
T4 chain: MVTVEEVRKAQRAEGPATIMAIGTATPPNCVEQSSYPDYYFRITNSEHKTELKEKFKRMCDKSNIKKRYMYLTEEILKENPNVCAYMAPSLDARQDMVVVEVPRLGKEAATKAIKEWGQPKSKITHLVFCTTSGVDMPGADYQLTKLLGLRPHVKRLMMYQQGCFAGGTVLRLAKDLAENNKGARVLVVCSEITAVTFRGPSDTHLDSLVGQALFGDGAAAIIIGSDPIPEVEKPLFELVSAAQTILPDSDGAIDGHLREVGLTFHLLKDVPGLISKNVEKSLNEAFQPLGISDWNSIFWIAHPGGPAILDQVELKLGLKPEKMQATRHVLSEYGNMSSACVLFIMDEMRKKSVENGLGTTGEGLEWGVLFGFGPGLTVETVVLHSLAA

[5] = biological target: T5, chalcone synthase-like A (ChSA)
T5 chain: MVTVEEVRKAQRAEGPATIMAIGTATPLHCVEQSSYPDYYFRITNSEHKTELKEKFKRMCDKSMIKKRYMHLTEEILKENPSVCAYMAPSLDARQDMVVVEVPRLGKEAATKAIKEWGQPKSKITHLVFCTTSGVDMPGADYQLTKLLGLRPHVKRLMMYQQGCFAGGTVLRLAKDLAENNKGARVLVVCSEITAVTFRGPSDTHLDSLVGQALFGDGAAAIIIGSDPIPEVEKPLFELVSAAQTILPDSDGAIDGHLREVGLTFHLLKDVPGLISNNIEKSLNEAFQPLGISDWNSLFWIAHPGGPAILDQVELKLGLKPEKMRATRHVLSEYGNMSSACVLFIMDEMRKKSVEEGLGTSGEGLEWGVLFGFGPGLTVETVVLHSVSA

B1: chalcone synthase-like E (ChSE) (protein)
chain: MGSLDQDFQPNQVPTIRADAATVLAIGTANPPNCIPQAEFADFYFRVTNSNHMTDLKKKFKRICEKSSIKKRYVHLTEKILNENPNICTFKEPSLTARQNIATEEIPKLGKEAALKAIEEWGRPKSEITHLVFCTIGGAEMPSADYQLVHLLGLNPSVKRFMLYYQGCFAGGSVLRLAKDLAENNVGARVLVVCAEVSIPYFHGPSEAHFDSNLIWQMLCGDGAGAAIVGSNPRKLIERPLFQLVSASQTIVPNSEGAIKGTLSEMGIIFNLVDKVPVLIGNNIENCLEEAFGSLGISNWNSLFWVAHPGGPAILNQIEEKLKLKEEKLKASRHVLSEYGNMSSACVFFILDEMRRRSKEEGKITTGDGLEWGVLFGFGPGLTVETIVLRSISTNEAH
levels of product (QA-TriR-FRX-C9) in N. benthamiana leaves, ChS pairs co-infiltrated (repeat experiment) [1]: In a repeat experiment, ChSB paired with ChSE also led to a noticeable increase of product | levels of product (QA-TriR-FRX-C9) in N. benthamiana leaves, ChS pairs co-infiltrated [2]: Pairing ChSE with ChSA, ChSC, CHSD or CHSF increased the levels of product made compared to either ChSE by itself or to the combination of all ChSs but ChSE | QA-TriR-FRX-C9 amounts in N. benthamiana leaves, triads of ChSs co-infiltrated [3]: the triads containing ChSD consistently had higher QA-TriR-FRX-C9 amounts than those without | levels of product (QA-TriR-FRX-C9) in N. benthamiana leaves, ChS pairs co-infiltrated [3]: Pairing ChSE with ChSA, ChSC, CHSD or CHSF increased the levels of product made compared to either ChSE by itself or to the combination of all ChSs but ChSE | levels of product (QA-TriR-FRX-C9) in N. benthamiana leaves, ChS pairs co-infiltrated [4]: Pairing ChSE with ChSA, ChSC, CHSD or CHSF increased the levels of product made compared to either ChSE by itself or to the combination of all ChSs but ChSE | levels of QA-TriR-FRX-C9 in N. benthamiana leaves (drop-out of one of six co-infiltrated ChS candidates) (other ChS candidates): The levels of QA-TriR-FRX-C9 were not affected except when ChSE was absent | levels of product (QA-TriR-FRX-C9) in N. benthamiana leaves, ChS pairs co-infiltrated [5]: Pairing ChSE with ChSA, ChSC, CHSD or CHSF increased the levels of product made compared to either ChSE by itself or to the combination of all ChSs but ChSE
